{"source": "paper doi:10.1101/2023.03.20.533423", "about": "(bioRxiv, 2023)", "binders": {"B1": {"name": "GST-Rv1708 (natural protein)", "chain": "MPAGLPGQASVAVRLSCDVPPDARHHEPRPGMTDHPDTGNGIGLTGRPPRAIPDPAPRSSHGPAKVIAMCNQKGGVGKTTSTINLGAALGEYGRRVLLVDMDPQGALSAGLGVPHYELDKTIHNVLVEPRVSIDDVLIHSRVKNMDLVPSNIDLSAAEIQLVNEVGREQTLARALYPVLDRYDYVLIDCQPSLGLLTVNGLACTDGVIIPTECEFFSLRGLALLTDTVDKVRDRLNPKLDISGILITRYDPRTVNSREVMARVVERFGDLVFDTVITRTVRFPETSVAGEPITTWAPKSAGALAYRALARELIDRFGM"}}, "biological_target": "T1, M. tb ParB with C-terminal 6xHis-tag (M. tuberculosis, UniProt P9WIJ9 1-344)", "T1 sequence": "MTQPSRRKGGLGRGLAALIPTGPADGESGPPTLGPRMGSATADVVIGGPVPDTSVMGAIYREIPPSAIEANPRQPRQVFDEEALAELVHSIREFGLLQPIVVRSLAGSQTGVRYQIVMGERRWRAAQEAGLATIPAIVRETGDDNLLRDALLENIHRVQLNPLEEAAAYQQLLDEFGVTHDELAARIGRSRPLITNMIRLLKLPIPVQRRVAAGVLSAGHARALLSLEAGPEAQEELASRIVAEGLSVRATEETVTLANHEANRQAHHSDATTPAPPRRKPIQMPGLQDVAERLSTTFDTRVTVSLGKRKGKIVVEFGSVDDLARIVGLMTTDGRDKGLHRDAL", "assay": "pull-down"}
{"binder": "B1", "values": [{"measurement": "binding result", "result": "binds"}]}
